Experimental data reported in patent US20050288225A1 (YEDA RESEARCH AND DEVELOPMENT, published 2005).

Molecular target: T1, HA-tagged B1 protein (Homo sapiens (Human), UniProt O43353 1-540)
T1 construct: Expressed in transfected 293 cells for co-immunoprecipitation; also called HA-B1
Assay: co-immunoprecipitation from transfected 293 cells: anti-FLAG IP, anti-HA western blot
Method: Seven hours after transfection cells were washed and 18 hours later cells were lysed in a buffer containing 50 mM HEPES pH 7.5, 250 mM NaCl, 0.2% NP-40, 5 mM EDTA, 1 mM phenylmethylsulfonyl fluoride, 2.0 μg/ml aprotinin and 20 μg/ml leupeptin (lysis buffer). Immunoprecipitation was performed by incubation (2hours, 4° C.) of 1 ml aliquots of lysate with anti-FLAG epitope antibody (5 μg/aliquot) and with protein G-agarose beads (30 μl/aliquot). Immunoprecipitates were washed three times with lysis buffer and once with PBS, fractionated by 10% SDS-PAGE and transferred to a nitrocellulose membrane (Schleicher & Schuell, Dassel, Germany). Western blot analysis was performed with anti-HA epitope monoclonal antibodies applied at a dilution of 1:1000, and the ECL kit (Amersham, Buckinghamshire, England).

T1 sequence (O43353 whole entry L79F): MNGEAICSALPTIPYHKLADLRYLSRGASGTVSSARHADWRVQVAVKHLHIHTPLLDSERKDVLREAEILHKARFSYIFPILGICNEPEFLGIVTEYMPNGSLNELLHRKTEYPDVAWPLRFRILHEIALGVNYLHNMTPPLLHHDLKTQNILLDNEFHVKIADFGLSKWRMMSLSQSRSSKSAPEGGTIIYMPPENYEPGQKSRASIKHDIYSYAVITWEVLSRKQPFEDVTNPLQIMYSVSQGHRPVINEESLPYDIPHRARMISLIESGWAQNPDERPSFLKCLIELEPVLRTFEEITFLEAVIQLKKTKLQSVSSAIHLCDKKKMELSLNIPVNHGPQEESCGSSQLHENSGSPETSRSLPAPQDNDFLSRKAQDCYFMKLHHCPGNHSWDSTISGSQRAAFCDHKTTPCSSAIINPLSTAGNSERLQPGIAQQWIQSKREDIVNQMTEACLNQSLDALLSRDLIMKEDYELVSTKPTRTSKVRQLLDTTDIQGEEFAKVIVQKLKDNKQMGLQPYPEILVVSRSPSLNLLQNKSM

B1: Flag-tagged TRAF2 (other, UniProt Q12933 1-501, looked up, not shown: small tags and cut ends)
chain: MAAASVTPPGSLELLQPGFSKTLLGTKLEAKYLCSACRNVLRRPFQAQCGHRYCSFCLASILSSGPQNCAACVHEGIYEEGISILESSSAFPDNAARREVESLPAVCPSDGCTWKGTLKEYESCHEGRCPLMLTECPACKGLVRLGEKERHLEHECPERSLSCRHCRAPCCGADVKAHHEVCPKFPLTCDGCGKKKIPREKFQDHVKTCGKCRVPCRFHAIGCLETVEGEKQQEHEVQWLREHLAMLLSSVLEAKPLLGDQSHAGSELLQRCESLEKKTATFENIVCVLNREVERVAMTAEACSRQHRLDQDKIEALSSKVQQLERSIGLKDLAMADLEQKVLEMEASTYDGVFIWKISDFARKRQEAVAGRIPAIFSPAFYTSRYGYKMCLRIYLNGDGTGRGTHLSLFFVVMKGPNDALLRWPFNQKVTLMLLDQNNREHVIDAFRPDVTSSSFQRPVNDMNIASGCPLFCPVSKMEAKNSYVRDDAIFIKAIVDLTGL
notes: Expressed in transfected 293 cells; also called FL-TRAF2
- binding result: no binding
